From paper PMC3084761 come the findings set out here.

For this experiment, the target named is OS-9 fused to the N-terminus of EYFP (pEYFP-N1-OS-9) (human) (UniProt Q13438). As to the kind of experiment: FRET or BRET; live-cell confocal FRET of ECFP (donor) and EYFP (acceptor) fusions in HEK293 cells transfected 48 h; acceptor/donor plasmid ratios 1:1 to 5:1; FRET efficiency against A/D ratio fitted to a 1:1 binding model.
Sequence of OS-9 fused to the N-terminus of EYFP (pEYFP-N1-OS-9) (human) (Q13438 26-667): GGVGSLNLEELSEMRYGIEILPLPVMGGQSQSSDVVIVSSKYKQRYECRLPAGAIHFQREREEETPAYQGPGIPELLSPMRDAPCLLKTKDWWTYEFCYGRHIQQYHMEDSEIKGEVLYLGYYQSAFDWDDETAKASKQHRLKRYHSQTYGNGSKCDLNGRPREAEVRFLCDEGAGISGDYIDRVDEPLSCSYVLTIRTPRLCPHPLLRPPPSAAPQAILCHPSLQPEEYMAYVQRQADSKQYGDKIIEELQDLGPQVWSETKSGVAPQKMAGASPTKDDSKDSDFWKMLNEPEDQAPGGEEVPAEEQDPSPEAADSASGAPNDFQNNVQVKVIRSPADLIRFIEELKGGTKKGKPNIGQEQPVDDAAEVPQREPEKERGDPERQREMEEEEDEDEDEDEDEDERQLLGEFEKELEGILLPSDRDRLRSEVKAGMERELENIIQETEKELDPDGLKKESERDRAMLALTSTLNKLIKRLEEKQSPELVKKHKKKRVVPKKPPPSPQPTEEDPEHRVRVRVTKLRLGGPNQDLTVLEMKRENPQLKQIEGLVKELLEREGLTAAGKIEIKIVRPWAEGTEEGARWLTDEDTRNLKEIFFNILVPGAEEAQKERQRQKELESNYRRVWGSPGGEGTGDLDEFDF

In the case of “PHD2-ECFP (PHD2 coding sequence in pECFP-N1) (from UniProt Q9GZT9 1-426) (enzyme)”, the maximum FRET efficiency is less than 10%.
